Reference: publication PMC10842004
“And” between values parts separate entries of the source, which are not always exact repeats. Equal values may be shown once. One block for each substance: values may come before it.

Columns and labels:
[1] = molecular target: His Pol ι aa 1–419 (catalytic domain of Pol ι) (human); assay: MST
[2] = molecular target: single point mutations in RAD23A UBA1 or UBA2 (as tested with Pol ι); assay: co-IP
[3] = molecular target: FLAG-RAD23A lacking UBA1 (human) (UniProt P54725); assay: co-IP
[4] = molecular target: single point mutations in RAD23A UBA1 or UBA2 (as tested with Rev1); assay: co-IP
[5] = molecular target: single point mutations in RAD23A UBA1 or UBA2 (as tested with Pol κ); assay: co-IP

Sequence of HA-tagged Pol κ (Q9UBT6 whole entry): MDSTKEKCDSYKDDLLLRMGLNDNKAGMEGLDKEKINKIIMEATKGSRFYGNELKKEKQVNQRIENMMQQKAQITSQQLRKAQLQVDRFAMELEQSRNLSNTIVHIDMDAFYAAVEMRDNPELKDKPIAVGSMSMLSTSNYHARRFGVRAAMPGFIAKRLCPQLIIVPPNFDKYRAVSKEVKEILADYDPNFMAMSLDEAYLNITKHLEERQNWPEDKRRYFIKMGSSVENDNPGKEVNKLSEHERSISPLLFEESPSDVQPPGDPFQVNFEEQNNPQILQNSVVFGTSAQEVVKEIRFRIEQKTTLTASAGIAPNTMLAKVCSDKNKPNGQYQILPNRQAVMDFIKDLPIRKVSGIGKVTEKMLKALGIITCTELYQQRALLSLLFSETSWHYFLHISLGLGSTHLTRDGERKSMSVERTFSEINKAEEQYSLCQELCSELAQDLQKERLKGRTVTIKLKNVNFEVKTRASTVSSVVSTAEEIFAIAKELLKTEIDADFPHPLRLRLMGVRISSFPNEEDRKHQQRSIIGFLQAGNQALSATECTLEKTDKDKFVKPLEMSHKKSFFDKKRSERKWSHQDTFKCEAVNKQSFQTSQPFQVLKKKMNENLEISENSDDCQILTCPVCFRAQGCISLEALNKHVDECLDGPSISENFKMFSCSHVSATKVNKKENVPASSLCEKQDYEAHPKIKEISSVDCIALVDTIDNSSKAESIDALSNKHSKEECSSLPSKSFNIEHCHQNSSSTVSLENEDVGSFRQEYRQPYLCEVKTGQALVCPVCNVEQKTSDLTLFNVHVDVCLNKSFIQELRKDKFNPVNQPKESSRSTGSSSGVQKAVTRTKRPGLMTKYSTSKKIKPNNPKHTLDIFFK
Sequence of HA-tagged REV1 (Q9UBZ9 whole entry): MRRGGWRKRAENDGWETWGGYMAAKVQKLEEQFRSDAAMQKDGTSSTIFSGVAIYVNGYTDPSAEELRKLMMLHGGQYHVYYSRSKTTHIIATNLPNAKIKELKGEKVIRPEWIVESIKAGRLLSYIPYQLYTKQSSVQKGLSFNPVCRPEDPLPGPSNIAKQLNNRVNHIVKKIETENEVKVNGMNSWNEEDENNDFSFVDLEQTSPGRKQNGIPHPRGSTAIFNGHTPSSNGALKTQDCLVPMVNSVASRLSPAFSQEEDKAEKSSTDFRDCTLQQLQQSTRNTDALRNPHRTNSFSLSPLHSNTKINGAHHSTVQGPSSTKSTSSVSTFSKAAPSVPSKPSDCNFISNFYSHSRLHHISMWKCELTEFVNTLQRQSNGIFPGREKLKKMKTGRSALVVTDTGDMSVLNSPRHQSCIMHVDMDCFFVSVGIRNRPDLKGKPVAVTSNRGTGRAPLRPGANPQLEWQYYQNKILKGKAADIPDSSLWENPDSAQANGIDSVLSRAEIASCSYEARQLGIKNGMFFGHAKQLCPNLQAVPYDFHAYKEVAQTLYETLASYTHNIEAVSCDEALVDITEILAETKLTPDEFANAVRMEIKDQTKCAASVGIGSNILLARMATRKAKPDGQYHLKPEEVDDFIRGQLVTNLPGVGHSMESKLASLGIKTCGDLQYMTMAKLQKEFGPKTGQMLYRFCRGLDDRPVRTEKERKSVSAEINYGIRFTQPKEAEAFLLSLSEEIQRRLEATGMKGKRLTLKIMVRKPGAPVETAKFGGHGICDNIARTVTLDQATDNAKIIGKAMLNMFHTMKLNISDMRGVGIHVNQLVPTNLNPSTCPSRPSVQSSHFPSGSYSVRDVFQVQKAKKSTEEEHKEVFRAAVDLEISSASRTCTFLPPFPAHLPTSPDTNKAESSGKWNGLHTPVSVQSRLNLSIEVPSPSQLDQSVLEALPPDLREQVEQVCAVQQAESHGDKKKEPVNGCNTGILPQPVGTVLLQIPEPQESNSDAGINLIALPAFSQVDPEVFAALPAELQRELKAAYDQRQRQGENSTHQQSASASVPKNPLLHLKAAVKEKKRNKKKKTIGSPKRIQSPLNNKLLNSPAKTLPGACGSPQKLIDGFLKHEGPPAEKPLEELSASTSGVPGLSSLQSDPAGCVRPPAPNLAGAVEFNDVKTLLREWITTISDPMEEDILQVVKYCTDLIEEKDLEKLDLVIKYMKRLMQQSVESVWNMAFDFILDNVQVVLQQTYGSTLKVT

- Kd [1]: 90 µM
Substance: RAD23A ΔUBL fragment (domain or fragment)

- percent disruption of binding against WT RAD23A [2]: 40% and 60%
- percent reduction of binding against WT RAD23A [3]: 75 to 85%
Substance: WT HA-Pol ι (enzyme)

- percent disruption of binding against WT RAD23A [4]: 70 to 80%
Substance: HA-tagged REV1 (from UniProt Q9UBZ9 1-1251) (enzyme)

- percent disruption of binding against WT RAD23A [5]: 40% and 60%
Substance: HA-tagged Pol κ (from UniProt Q9UBT6 1-870) (enzyme)
